Test results as given in the supplement of paper PMC9170038.

Test system: K4 kissing-loop RNA reporter
Assay: apparent KD of K4 kissing-loop reporter; higher = weaker reporter binding
Conditions: Eterna round: R107; input ligand: theophylline 20 uM
Procedure: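 RNA-MaP round R107: designed RNA switches with theophylline, tryptophan, arginine or FMN aptamers are transcribed on-chip within common flanks. They are titrated with a labelled K4 kissing-loop RNA reporter in RNA-MaP buffer (100 mM Tris pH 7.5, 80 mM KCl, 4 mM MgCl2), without ligand or with the indicated ligand. Median apparent KD per design.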
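Further: bound reporter read as fluorescence of individual clusters on recovered sequencing chips by microscopy, with normalized cluster intensities fitted with a binding model.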

| Sequence | apparent KD of K4 kissing-loop reporter [µM] |
| --- | --- |
| GCUCAGGAGUGAUGUUCCAAGUGGUGUUAACGAGGACCGGUACGGCCGCCACUCGAUACGGCCGGACCGUAGGAUAAACUAGAGC [Same State - Tryptophan A (Freestyle 11)] | 0.28 |
| CAGAACUUGUAUAUAGGGUAUAUAAGAGAUACCAGUCAAAUUAAAGACCCUUGGCAGCUCAGGCGAGUGAUGUUCGCAGGCUAAC [Exclusion Theophylline A GF 17] | 0.133 |
| ACGACGCAUAGUGAUACCAGCAUUAUAUGAGUGAUGUUCUACCUAAAAUGGUAAUAAUUAUGCCCUUGGCAGCACUAUGCGUCAG [KL-SSTheoB3] | 0.501 |
| AGUGCACUGUCAGGAUAUAUACAGUGAUGUUGUGUAUGUCGGCAAGUCAAAGACUUGCCAUUCUGUGUAGAAGGGACUGUGUACA [#04 K4 FMN B Exclusion] | 0.202 |
| UGUCAUUGGUCGGAUACCAGUUGAUGACGAAUACGUCAACUGGAGUGAUGUUCCUAAAACAACCCUUGGCAGCCGACCGAUGACU [MAT - Same State Theophlline B - Mod of Eli - D1] | 0.666 |
| AAGGUUUAGCACGAUACCAGCCUGGAGGCCAGUGAUGUUGGCCGAUUUGAACAGAAUUAAGGCCCUUGGCAGCGUCUCUAAAACC [Dierra] | 0.144 |
| GGGUCUGUCGGAAGGAGCGCGCUAUGGAGUGAUGUUCCAUGACCGUACAGCUUACGGUCAGCGCAGGUAGGUCGCCGAUAGCGUU [Geordiar] | 0.151 |
| GGUGCUGUCUGUGCCGCCCUCCUCGUCCCUCGAGGACCGGUACGGCCGCCACUCGAGUGAUGUUCGGGUAGCCAUCCCUGCUAGC [Bdazzled - #19 Exc. Tryptophan A] | 0.59 |
| AAAAUAACCCAGUGAUGUUGGUAUACAGAUACCAGCGACGAAAGUCGCCCUUGGCAGCUGUGGACGUACAAAAUAAGUACGUCCU | 0.902 |
| CUUAAGAUAUGAGUGAUGUUCAUGUCCGAAGGAGCGUGCGAAAGCACAGGUAGGUCGCGGAUGUGAGUGAUGUUCAUGUAAGCGA [KL-XArg-A12 #analogue] | 0.135 |
| UUUAACGAGUGAUGUUCGAAAAGUAAUGGUGAGGAUAUCGUUUUUUCGAGAAGGCACCUCGAAGUGAUACGAAAGUAUCGCUUCG [FMN A 3] | 0.314 |
| AUGUUGAGCGGAAGGAGCGGCUGAACCAGUGAUGUUGGUUAAUCCAAGUGAUGUUGGAAAAGCCAGGUAGGUCGCCGCUUUAUGU [Same State Arg B GF 2] | 0.896 |
| GCCGUAGAUUGAAGGAGCGCCGCGCAUGUCCCGCUUAGUGUAGUGAUGUUACAGUUUCAGCGGCAGGUAGGUCGCAAUCUACGGC | 0.0772 |
| GGAGGGAUCUCGGCCGCCACUCGUGGGAAAUGGGCCUCAGGGAUAUAGUGAUGUUAUGUAAAGAAGAGGACCGGGAGAAGGAAGG [ExTryptoB.Dg] | 0.366 |
| UGGUUUAGAAGUGAUGUUUCGAUAAGUGAUACCAGACAAAAGAAAGUCCCUUGGCAGCACAAUGAUGCCAAGGAAACGGCAUGAU [Same State Theophylline A GF 1] | 0.127 |
| GCCGUACGCAUGGAUACCAGCAUGCAUAUUAGCUAGUGAUGUUAGCGCUAUGCGAUGCUAUGCCCUUGGCAGCCAUGCGUACGGC | 0.247 |
| AGACUACCACACUGUCAAUAGACAGUGAGGUAGGAUAUGCUGAAAAGCAGAAGGACCAGUGAUGUUGGUAGGUAGUCAAAAUAAA [FmnAX 11 #SwitchBubble #StaticStem #K4Early] | 0.128 |
| GCAGUGAUGUUGCGCGGGUACGGUAGAGUGCGAGGACCGGUACGGCCGCCACUCGUACGGAACUGGCUAAUAUAUGGAUAGGUGA [V] | 0.406 |
| UGUGUUGUUUUGAUGUUUGGUGUUUGUUGGCAGGAUAUCGUAGAGGCGAGAAGGGCUUGGGAGCGGUAUGAGUGAUGUUUGUAGG [deedwrmullin] | 0.302 |
| UUGCGUCUCUGAGGAUAUCAGAACAGAGUGAUGUUCUGUCAACGCCCAGUGAUGUUGGAUGCGAUCUGAGAAGGCAGUGGGCGCG [Same State FMN B GF 10] | 0.177 |
| GUAUCGCUAGGAGGAUAUUCCAUUUUACAUAGAAAUGGCUAUGCGAAGUGAUGUUUCGAUUUACGGGAAGAAGGCCUAGUGAUAC [FMN B 22] | 0.177 |
| UGUACCGAGUGAGGAUAUGUCGUCGAAAGACGAAAUGGAGUGAUGUUCCUUAAACUGCGAAAGCAGACAGAAGGUACUUGGUACU [FmnBS 29 G11+U75] | 0.312 |
| GCAGUGAUGUUGCAAAAUGUCUGUGGUAGUCGAGGACCGGUACGGCCGCCACUCGGUGAGAACCUGCUAAUACAUCGAUAAGUGA [IX] | 0.81 |
| UACAAACGUAGUGAUGUUACGUACUCUGAUACCAGACAACUCUAAGUCCCUUGGCAGCAGUCACUUAGCUUAUUAUUUUCUCAAA [JR_Nu_ExcTheophyA_Sub026] | 0.13 |
| AUAUCUGAUAGCAGUGAUGUUGCUUCAGAUACCAGACGAGAUCAUGUCCCUUGGCAGCUGACACGGCACGUGCUAGGUUAGAUGA [Theo A Ex t2] | 0.103 |
| GAUGAUCGCGCGGCCGCCACUGGUCAGUGAUGUUGACAUUAAUGCGCCGAGUAGUAACGGCGCAACAGGACCGGGCGCGAUGUAG [#11 K4 Tryptophan B Same State] | 0.185 |
| AGAAAAGGGACGAUCGUCGAGUUGCCAGAAGGAGCGGUAAUUUUACCAGGUAGGUCGCUGGCCCAGUGAUGUUGGGCUUUUAAGA [Biisinaor] | 0.133 |
